The record followed here is US20130123350, “NUCLEIC ACID MOLECULE CAPABLE OF BINDING TO c-MET AND USE THEREOF” (KANAGAWA PREFECTURAL HOSPITAL ORGANIZATION, published 2013).

In data set [1] the target is rec-NGFR (Recombinant Human NGF R/TNFRSF16/Fc Chimera) (Homo sapiens, UniProt P08138 SEQ:1-222). As to the kind of experiment: ELONA; signal below 40N. Particulars: tags: C-terminal DIEGRMD linker, human IgG Fc (100-330), 6xHis; R&D Systems; chain copies: 2 (inferred, Fc chimera). The procedure: Next, a 20-mer polyadenine (poly A) was added to the 3′ end of each of the RNA aptamers. Thus, poly-A-added RNA aptamers were prepared. Each of the poly-A-added RNA aptamers was denatured, and thereafter, the denatured poly-A-added RNA aptamer was mixed with a 20-mer biotinylated polythymine with its 5′ end being biotinylated (740 nmol/L), tRNA (100 μg/mL), and an RNase inhibitor (0.16 units/mL). As a result, complementary binding occurred between the poly A in the poly-A-added RNA aptamer and the polythymine (poly T) in the biotinylated polythymine, whereby a biotin-labeled RNA aptamer was produced. The biotin-labeled RNA aptamer was added to the plate, and the plate was incubated at 4° C. for 30 minutes. Subsequently, the plate was washed, and 0.1 μg/mL HRP-streptavidin (Thermo Fisher Scientific Inc., USA) was added thereto. The plate was then washed, after which a 1-Step Ultra TMB substrate (Thermo Fisher Scientific Inc., USA) was added to the plate to cause color development, and the absorbance at 450 nm was measured.
rec-NGFR (Recombinant Human NGF R/TNFRSF16/Fc Chimera), sequence (P08138 29-250, change not shown): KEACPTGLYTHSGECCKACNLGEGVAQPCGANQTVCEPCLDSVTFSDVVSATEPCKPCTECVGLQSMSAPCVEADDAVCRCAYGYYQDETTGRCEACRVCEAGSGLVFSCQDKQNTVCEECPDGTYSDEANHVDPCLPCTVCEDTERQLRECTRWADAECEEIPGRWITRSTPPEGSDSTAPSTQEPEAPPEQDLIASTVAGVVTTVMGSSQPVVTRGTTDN
The binding ability of each of the RNA aptamers to the rec-NGFR was examined in the same manner as in Example 1, except that the rec-NGFR was bound to the plate. Also, as a comparative example, the 40N was used, and the binding ability thereof was examined in the same manner.

Data set [2] addresses rec-cMet (Recombinant Human HGF R/c-MET/Fc Chimera) (Homo sapiens, UniProt P08581;P08581 SEQ:1-283,SEQ:1-625). The experiment in a line: ELONA; high binding; Table 2 misnumbers as SEQ 45; also SPR FIG. 11. The conditions noted are these: tags: C-terminal HIEGRMD linker, human IgG Fc (100-330), 6xHis; R&D Systems; chain copies: 2 (inferred, Fc chimera). The procedure: An anti-IgG antibody (trade name: “Human IgG-Fc Antibody”, Bethyl Laboratories) was adsorbed on a 96-well plate (Iwaki, AGC Techno Glass Co., Ltd., Japan), and then was subjected to blocking using 1% bovine serum albumin. Subsequently, 50 μL of the 1 μg/mL rec-cMet was added to the plate. Further, Tris (20 mmol/L), sodium chloride (100 mmol/L), magnesium acetate (0.1 mmol/L) and Triton (registered trademark)-X100 (0.2%) were added to the plate so that their final concentrations would be as shown in the parentheses. The plate was incubated at room temperature for 3 hours, thus causing the rec-cMet to bind to the plate. After the incubation, the plate was washed three times with a washing solution. The composition of the washing solution was as follows: 20 mmol/L Tris, 100 mmol/L sodium chloride, 0.1 mmol/L magnesium acetate, and 0.2% Triton (registered trademark)-X100. As a control, incubation and washing were carried out in the same manner, except that 50 μL of the washing solution was added instead of 50 μL of the rec-cMet.
Next, a 20-mer polyadenine (poly A) was added to the 3′ end of each of the RNA aptamers. Thus, poly-A-added RNA aptamers were prepared. […] The plate was then washed, after which a 1-Step Ultra TMB substrate (Thermo Fisher Scientific Inc., USA) was added to the plate to cause color development, and the absorbance at 450 nm was measured.

rec-cMet (Recombinant Human HGF R/c-MET/Fc Chimera), sequence (P08581 25-307, change not shown, chain 1 of 2): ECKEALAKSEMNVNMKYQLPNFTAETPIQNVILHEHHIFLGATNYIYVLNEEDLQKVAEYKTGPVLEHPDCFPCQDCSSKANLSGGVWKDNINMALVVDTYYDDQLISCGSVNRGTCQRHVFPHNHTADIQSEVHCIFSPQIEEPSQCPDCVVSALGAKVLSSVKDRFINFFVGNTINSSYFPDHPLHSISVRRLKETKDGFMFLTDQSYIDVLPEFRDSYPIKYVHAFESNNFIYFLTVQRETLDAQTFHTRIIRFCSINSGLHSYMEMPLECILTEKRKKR
rec-cMet (Recombinant Human HGF R/c-MET/Fc Chimera), sequence (P08581 308-932, change not shown, chain 2 of 2): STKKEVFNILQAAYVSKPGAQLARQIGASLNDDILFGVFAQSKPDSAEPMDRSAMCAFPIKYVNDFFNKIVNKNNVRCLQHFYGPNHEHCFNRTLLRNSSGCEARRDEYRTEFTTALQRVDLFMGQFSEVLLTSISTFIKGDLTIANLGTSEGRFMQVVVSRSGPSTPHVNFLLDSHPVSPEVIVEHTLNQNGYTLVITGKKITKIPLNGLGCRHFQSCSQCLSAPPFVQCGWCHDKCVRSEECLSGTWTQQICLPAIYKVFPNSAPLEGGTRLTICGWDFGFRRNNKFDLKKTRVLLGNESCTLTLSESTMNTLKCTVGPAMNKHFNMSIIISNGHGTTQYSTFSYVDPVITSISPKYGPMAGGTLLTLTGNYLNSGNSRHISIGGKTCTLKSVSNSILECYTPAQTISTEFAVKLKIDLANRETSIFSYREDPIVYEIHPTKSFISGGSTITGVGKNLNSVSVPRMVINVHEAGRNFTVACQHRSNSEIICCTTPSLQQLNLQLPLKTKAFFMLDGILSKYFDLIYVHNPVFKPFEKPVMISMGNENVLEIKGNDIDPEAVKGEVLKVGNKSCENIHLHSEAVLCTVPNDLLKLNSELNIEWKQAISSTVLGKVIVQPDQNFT

B1: g6 (ssRNA)
RNA: GGGACGCUCACGUACGCUAAUCCAGGUGUGGCGAGCCACUGUAAGAGUCGCCGUGAGGAUUCAGUGCCUGGACGUGCAGU
As for B1, the binding result was “no binding” in data set [1] and “binds” in data set [2].
